From the supplement of paper PMC11502859

Test system: HEK293T
Assay: median enrichment of reporter reads in eGFP-reduced (low/intermediate) vs eGFP-high sorted cells (eGFP-extension fusion abundance) (ratio); higher = stronger loss of eGFP-fusion protein abundance (more destabilising extension)
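Further: lentiviral eGFP-IRES-mCherry reporter pool sorted by FACS 96 h post-transduction, gated on mCherry-high cells, Illumina read counts normalized per million, median across four biological replicates.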

Sequence of RBP1 (chain, as listed by the source): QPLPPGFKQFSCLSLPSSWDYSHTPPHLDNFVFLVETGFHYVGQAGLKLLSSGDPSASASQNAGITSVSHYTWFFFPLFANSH
Sequence of ZNF28 (chain, as listed by the source): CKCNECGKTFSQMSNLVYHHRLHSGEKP

Substance	median enrichment
SEPQLTKSACPRTAPALELGARAAELVFGPQRRIQNQKLKSDVRWAPAPSAESRQGEAGWSQAPSHAAPKSWTHLWGAPHLHL [MYO9B]	7.17
REQQMELWERGEQWGYRESSSALPLGQPHLPAVSPGHFSTSQVEVLQGPAATCIRRTSFSA [SPATA19]	4.52
YSCVVKINMRKLPCNLNLGFPCNRN [IL23R]	22.3
QCLPERVVRWCHVGEQVSFRTQRRPPFCK [ACTR3B]	5.17
WRKRDAGTHPCLREVWLSPNPPHRPPFTKHLSCLMCPIELHSVRLDAVISGTYVTMFAEAPGVVGRGGRCG [RNF144A]	6.33
EEITRWHQPRALARYGEGTWGPHLPPGLFREDPTVTPPSAVGAWRWAAGLNPPWGAPFLLPICVYIHK [MEF2B]	6.73
YNWKLSTHRKRSLLGRWPPQCLEKNLWASTAAREELLQARGRKGENTNSLVVSGVGG [S1PR1]	5.24
LHGPCMLINASSEM [TMEM205]	5.79
LKKNPRKNKS [NME5]	1.1
RGSGQECHSQCPDPEIGPIPCLQPCLEAIQ [SLC22A14]	2.88
YTSRTAT [NCOA6]	0.753
MMMMMMMMMM [Met10]	10.8
YTLENMYVWLIKCFKLN [NOTCH2NLA]	7.83
LTRKCCCPSSTLRPGAG [FCHO1]	7.02
CLL [ACSBG2]	7.26
YFSPFFSPEMKTTSPLSLWKQSSVLHTTRC [ARL1]	11.4
RDALAMAQEKPARKNQTDFHTKEEASIFFFLFFIGVVTKPFRLLLFKI [QRICH1]	33
LKELIFNFSLQTGQH [TAF7]	6.43
WSLVTPIEI [OR52A5]	7.53
LNWD [PIK3C3]	0.342
HHHHHHHHHH [His10]	0.464
KEENKQNQPPHHRVLQQDMHTIGA [CDCA7L]	11.9
QVPFPLLNIKLNSI [NSMAF]	2.85
SDNL [PDLIM2]	0.365
YMSF [PPP1CC]	1.47
YWAPSL [MSN]	2.04

Substance	median enrichment
RAPWWERL [HTT]	1.54
RQRPPAPALPQPSY [SART1]	0.558
RRKEFCKETIRFVKDILHNI [PPP1CB]	7.66
WSPLSRDSGKGGFLHPTPLLPWL [KIAA1191]	5.6
RPRPGPALPPGAPTCNKCSEAGK [CYBA]	0.134
ZNF28	1.64
LACPFCPVGPQAHSGVTEA [TLX1]	6.73
QRLAPACTPAPAAGSPQSQPFGTVLTL [ABCG4]	28.4
LSVHWGPSVVPFVENLLHKALLNCLELGTSIPMETSPVWGTWRICQRLSDMGPWQFYTGKWSAPLGYTRLSVFSPSILFPLHM [NYNRIN]	3.7
WARSTGPDEWIFTTFTRL [CD8B]	7.72
YRA [SYNE2]	0.591
WSGKLGAFGLKGRMFPVFLDNKLGK [PKHD1]	11.8
YPLRDSRCYLSSVPHFL [SYT9]	12
STSAHILESYYS [ACADL]	0.545
YSHPPPLGVPNVPSAVPAAAPLHPQLHHPLSHSRSCTPAFQLCPRGF [PRKCG]	3.59
RSSKPTKHQKTHSQTSEHKLHG [PLCB4]	0.191
LEPWGWGRGCQLHSGTLGRWASERLLTGSGASRCQAASGPLGCPGQACEEGLRWGRQGAPGSRDHR [RPUSD1]	5.25
RGK [PKP2]	0.513
RCRVFSSFFLLQEFVVT [MMP16]	3.48
YKVPLANCLEAQHNPKALFR [HIST1H1E]	6.29
LNGSHSVTQAGVKWPNHSSLQPQPGRFR [COX17]	8.21
YELNKNKIQV [CXorf66]	0.339
YYYYY [Tyr05]	22.4
WLYESFCHKVPKRRGMGRVPQHVVTA [DSN1]	11
RVYTRTMWYVARPGPGVRLGQPQLSLPLLLIQGVTRHLSLCYFWPQQEPVLGYFCPCSSQPNSGLAHPSPPPKAAEAVGGTGP [KCNJ11]	4.66
LLLPLGFTSQTQPLEQPDPAE [CHAT]	6.49

Substance	median enrichment
DISSYLTMLSLLGAVLVGPGPCIMPRSQLQGPSWGPGWALGSGPCCSSPSHQPVPVVRKPGLLSSFLLGECQTQGPSTGLGWE [BAP1]	5.92
CTLGAVSSKSL [ZFC3H1]	0.779
SEAPAANTMQARCVSELF [METTL2B]	0.81
KKKLSHREKNI [OGA]	0.598
NNNNNNNN [Asn08]	0.184
RPSTKGPPSWCSITSFLKGISFFTTLS [FANCE]	13.8
NNNNNNNNN [Asn09]	0.367
RNEYMTGNNGDCL [CTPS2]	0.464
SWVCAQPFKAAGSTT [TRIM45]	4.99
IIIII [Ile05]	8.97
LLLPRSWATP [CEP72]	4.2
YVFVIFNCSML [CRISP1]	8.9
WLEWIYDVPLRRSISATILI [HMGCLL1]	12.2
RVWGPCQPAAPKPAPLPKQPRPLPLNPGPGRPGRPPVTAAAPALCRAALTCLPSQPLTSRLSLGQREPFGGAACLLWFWEG [FLNA]	3.47
RBP1	6.79
QPWQ [ADGRL3]	0.354
CALYLGSGQELHLGTNSC [ABCF2]	13.2
YLLKYRNLNNVKLD [TJP1]	4.45
QYLTGHHRILWIFFPSFWFWFRANSCFIGTVYEAFETKNNEE [GALC]	6.16
SDTLLWSETEDVG [PEX7]	2.59
YEPYSFKPYVFLCAFFPYPSSLALPFLNTAAL [UBQLN3]	7.8
LMSMSEGKENFGHQNPAPSELKELIYFMKLILLCVCSWC [GALNT15]	12.1
SDPAGSINLDAWTL [MYL5]	0.467
GLPPWSLNPAPTSCLFS [PRDM10]	5.78
WPPGTSLALLTHPRNTISGTRAAPRTRGYSRHNLIERAPAALTSTAFDTYASLVLLLSSESSCAHAFSRMGSPLAVAASVLAL [KIAA1522]	8.47
SGVLSSHFCVTCHFLPLVPCRFGMKMVSFAVFNLFFIMVEYSSRSFVLVYEENLHIFFVFQ [CHIC1]	9.4

Substance	median enrichment
WEKN [C12orf65]	0.333
KTAPPTSVQAGRSP [NCAPD3]	7.59
RVFHP [ZSWIM8]	0.463
ACKNWFSSLSHFVIHL [Degron CL1]	8.24
QLYVGLSLEYVWSPGLSRLEQQSLLLAYHRD [ZFYVE21]	9.76
KKLRS [CRYGN]	0.509
LTLLKTGQSLPLCTF [MYCN]	15.2
QNASVRIKD [BORA]	0.475
YYYYYYYYY [Tyr09]	4.03
WQGLPQHQSGDCDREGLAGTPRASGVVTDQEGLARTSANICGAAANNAAITENMVLVLKNVQCHFQQFKINRQNHPVARIT [OR2T2]	6.25
QCDSQCNNIKISFYIII [ASNSD1]	4.36
LGNCWLAWHHHTATASHLLCQGGTSSAGACPVLCGRCCVLLNTAGPAITPWAWRSLGVSRCGGGQPGWPHSITGTACLGTRFP [PIGQ]	5.81
CFWNRVKLSQRRRKSPGICTS [PPP1R14C]	13.7
LKINC [FGG]	0.827
WPTSRIYSSWKLPNGEDSTKY [KRTAP24-1]	3.66
SGLPLPSLLEIVNPAVCAGLIVSVL [FBXO25]	6.93
SRVSGKKHSCMSICSWNQFL [STYK1]	11
YPSQGCSSVPSRRMWQGRAGSE [SERPINA4]	0.599
YKSKNIFLKVMMHSFGW [CENPW]	4.27
KGRINK [NPIPA1]	0.274
SKHLKC [FAN1]	0.578
YAVGTESEYF [GFRA2]	0.617
WNMKAEMQQTTSA [MNDA]	0.66
RGNLQAEEVSAAALLEPGRGLPVSQPGPATQDSWDIPCVTPLRPFGLAPWLSLREVALRLAIYIYNLFT [HK3]	4.11
PWPHQWHRGAPATGWPSGQPEHQGHCQPAAEAGEQDRDRPQRALPGQPSGFLRDGGRAGGRWRGMVDVPKRCQRAAGFRILLC [DECR2]	3.51
QALSIPM [IDH3B]	0.815

Substance	median enrichment
GGG [Gly03]	1.62
LGLRVHTGWQEASKGS [SERPINH1]	4.89
EMALSPPRSWGQ [Degron APPBP2]	10.9
SDFYLNRETYARTVWTNSRPRHGARRPAGLPPLDGRGKDGRELHCESAARAAGGWDWSSLYCR [DOT1L]	6.88
CAGAFVAISL [MSI2]	8.28
QELVGSLRTPVLLTPSF [TSNAXIP1]	2.24
YMILKPETI [TRIP11]	4.3
WGSGFVSAAAYPCPMCPPLPVLRASGMVQALRKVRVAVWEPLCLAPGYPGPGNLRAGERWGGRHAEVLLVTGLPSLTCTYLHP [SLC36A1]	4.72
KKKEKKAKKKK [IQCA1]	0.903
CCTKDLLF [GNA13]	1.47
GEKSYKCKECGKPLDDPQTLMNMRKFIL [ZNF141]	6.09
YMSEHGLSQACLHGIRLATPARPPGWFFSS [TJP2]	4.38
EVQPACSCIQKPATTQPISACAYPDKKTKIPLGKTQALTLLFKWPLQKV [TPD52L1]	13
QVLSPNNFFLSEVKGLKISWK [ENOSF1]	10.9
WNHRSGRSRALSSCTVFIVPGTLFKDI [LIN7B]	4.84
KSFPLTLLQIGL [PTHLH]	19.8
SSKEVILFCLLIIM [CHMP2B]	6.82
LPF [SDHD]	0.443
LPVGVAGSSLQIWPARCLAGWTG [DOLPP1]	8.63
SAEGKSGKMSFERCIPKASSGASGKSGPTSARPSSPSPAPPLVSSFIQQNLAGK [NKG7]	0.737
EEEEE [Glu05]	1.41
SSSAC [BPTF]	0.596
EDTPSPDSTGNRSSPDSPPRRASPRPCTGSEASVTLPLCSPVP [KDM2A]	0.106
WVAPPSWGEVPSRLRRRGARGRS [PHLDB3]	16.2
